Assay results: US20170009259A1 (SUMITOMO RUBBER INDUSTRIES, published 2017)

B2: Nogo-B receptor (NgBr) from Hevea brasiliensis (receptor)
chain: MDLKPGAGGQRVNRLVDPISYHFLQFLWRTLHLLVSLWYLQVSMVQMIEGFLISSGLVKRYGALDIDKVRYLAIVVDSEEAYQISKVIQLLKWVEDMGVKHLCLYDSKGVLKTNKKTIMESLNNAMPFEEAVEKDVLLDQKQMTVEFASSSDGKEAITRAANVLFMKYLKYAKTGVGKEEPCFTEDQMDEALKAIGYKGPEPDLLLIYGPVRCHLGFSPWRLRYTEMVHMGPLRYMNLGSLKKAIHRFTTVQQNYGT
notes: In the yeast two-hybrid assay it was expressed from the pBT3-SUC bait vector (pBT-NgBr); also called pBT-NgBr

How the values were obtained:
[1] = target: B2; assay: yeast two-hybrid, pPR-HRT1 prey with pBT-NgBr bait (pair No. 5), growth on Trp-, Leu-, Ade- and His-deficient SD medium
Procedure: (§1) The yeast strain NMY-51 was transformed with the collected plasmids. The PEG method was used for the double transformation of the yeast. The transformant cells were cultured at 30° C. for three days on Trp- and Leu-deficient SD medium for screening.
(§2) In this experiment, the yeast can grow on the selective medium only when a protein encoded by the gene introduced in the bait plasmid interacts with a protein encoded by the gene introduced in the prey plasmid.

[2] = target: T1, Hevea rubber transferase 2 (HRT2), cis-prenyltransferase from Hevea brasiliensis (Hevea brasiliensis, UniProt Q8W3U4 1-284); assay: yeast two-hybrid, pPR-HRT1 prey with pBT-HRT2 bait (pair No. 6), growth on Trp-, Leu-, Ade- and His-deficient SD medium
T1 construct: In the yeast two-hybrid assay it was expressed from the pPR3-N prey vector (pPR-HRT2) or the pBT3-SUC bait vector (pBT-HRT2); also called CPT; pPR-HRT2
T1 sequence: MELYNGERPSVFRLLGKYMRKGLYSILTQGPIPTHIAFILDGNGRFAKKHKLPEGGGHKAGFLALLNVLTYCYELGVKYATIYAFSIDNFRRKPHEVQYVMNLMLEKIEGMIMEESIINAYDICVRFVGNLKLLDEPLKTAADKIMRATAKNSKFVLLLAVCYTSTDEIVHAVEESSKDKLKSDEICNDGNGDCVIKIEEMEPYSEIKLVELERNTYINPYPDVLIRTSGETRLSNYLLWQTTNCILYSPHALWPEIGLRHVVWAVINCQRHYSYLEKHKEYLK
Procedure: as §1, §2

[3] = target: T1, Hevea rubber transferase 2 (HRT2), …; assay: yeast two-hybrid, pPR-HRT2 prey with pBT-NgBr bait (pair No. 9), growth on Trp-, Leu-, Ade- and His-deficient SD medium
Procedure: as §1, §2

B1: Hevea rubber transferase 1 (HRT1), cis-prenyltransferase from Hevea brasiliensis (enzyme)
chain: MELYNGERPSVFRLLGKYMRKGLYSILTQGPIPTHIAFILDGNRRFAKKHKLPEGGGHKAGFLALLNVLTYCYELGVKYATIYAFSIDNFRRKPHEVQYVMDLMLEKIEGMIMEESIINAYDICVRFVGNLKLLSEPVKTAADKIMRATANNSKCVLLIAVCYTSTDEIVHAVEESSELNSNEVCNNQELEEANATGSGTVIQIENMESYSGIKLVDLEKNTYINPYPDVLIRTSGETRLSNYLLWQTTNCILYSPHALWPEIGLRHVVWAVINFQRHYSYLEKHKEYLK
notes: In the yeast two-hybrid assay it was expressed from the pPR3-N prey vector (pPR-HRT1) or the pBT3-SUC bait vector (pBT-HRT1); also called CPT; pPR-HRT1
Q: What does the source list for B1?
A: binding result [1]: binds; binding result [2]: no binding

Q: Does B2 bind [3]?
A: Result: no binding
